Experiment [1] addresses miPEP8 fused on its C-terminus to the N-terminal fragment of luciferase (N-Luc) (Drosophila melanogaster). Nature of the experiment: split reporter (BiFC, NanoBiT); split firefly luciferase in S2 cells: miPEP8 or Ey fused to N-Luc, candidates or Antp fused to C-Luc; 48 h after transfection, D-luciferin, luminescence normalised; negative control: the two fragments not fused to any protein.

Experiment [2] addresses EGFP-miPEP8 SLiMmt (mutated SLiM MOD_Plk1/MOD_Plk4) (Drosophila melanogaster). Nature of the experiment: affinity purification with mass spectrometry; GFP-Trap agarose beads O/N at 4 °C on lysates of S2 cells transfected with EGFP, EGFP-miPEP8 or EGFP-miPEP8 SLiMmt; lysis buffer 50 mM Tris pH 7.5, 50 mM NaCl, 5% glycerol, 0.1% Igepal; four washes; LC-MS/MS, MaxQuant.

B1: PI3K92 E fused with the C-terminal fragment of the luciferase (natural protein)
chain: MNMMDNRALAYVAHQPKYETPPEEAEPPCMRFSVNLWKNEMLNWVDLICLLPNGFLLELRVNPANTIQVIKVEMVNQAKQMPLGYVIKEACEYQVYGISTFNIEPYTDETKRLSEVQPYFGILSLGERTDTTSFSSDYELTKMVNGMIGTTFDHNRTHGSPEIDDFRLYMTQTCDNIELERSAYTWQQRLLYEHPLRLANSTKMPELIRERHPTRTFLIVVKNENDQSTFTLSVNEQDTPFSLTESTLQKMNRSQMKMNDRTSDYILKVSGRDEYLLGDYPLIQFLYIQEMLSDSAVPNVVLQSVYRLESYINHHNEQAMVTKRPLPKKRTVHLHKSISSLWDMGNYFQLTLHSISNVNFDKTRALKVGVHVCLYHGDKKLCAQRSTDSPNGNFDTFLFNDLVMDFDIQMRNLPRMTRLCIVIFEVTKMSRSKKSSNNKDIALKDVPYNKNPLAWVNTTIFDHKDILRTGRHTLYTWTYADDIQSVEVFHPLGTIEPNPRKEECALVDLTFLSSGTGTVRYPSEEVVLQYAADREQVNRLQRQLAGPEKPIKELKELMANYTGLDKIYEMVDQDRNAIWERRNDILRELPEELSILLHCVYWKERDDVADMWYLLKQWPLISIERSLELLDYAYPDPAVRRFAIRCLHFLKDEDLLLYLLQLVQAIKHESYLESDLVVFLLERALRNQRIGHYFFWHLRSEMQTPSMQTRFGLLLEVYLKGCKHHVAPLRKQLHVLEKLKQGSLIAKKGSKEKVKTMLQDFLRDQRNSAVFQNIQNPLNPSFRCSGVTPDRCKVMDSKMRPLWVVFENADVNASDVHIIFKNGDDLRQDMLTLQMLRVMDQLWKRDGMDFRMNIYNCISMEKSLGMIEVVRHAETIANIQKEKGMFSATSPFKKGSLLSWLKEHNKPADKLNKAINEFTLSCAGYCVATYVLGVADRHSDNIMVKRNGQLFHIDFGHILGHFKEKLGVRRERVPFVLTHDFVYVINKGFNDRESKEFCHFQELCERAFLVLRKHGCLILSLFSMMISTGLPELSSEKDLDYLRETLVLDYTEEKAREHFRAKFSEALANSWKTSLNWASHNFSKNNKQ
The molecule B1 yielded a luminescence signal, times the negative control (times the negative control) in experiment [1] of 4.6.

B2: ref(2)P (refractory to sigma P), the orthologue of the human p62/Sequestosome 1 protein (natural protein)
chain: MPEKLLKITYQGAGPQKKINAYLRMPSQNYTILRREIELYLFQERQLPKCDVRTFWIDADKDEIEIVNQNDYEIFLAKCESNMHVQVAPLAPVEEPKATKQEGSSANAEAPSVDDPSNFTIHDAVECDGCGLAPLIGFRYKCVQCSNYDLCQKCELAHKHPEHLMLRMPTNNGPGMVDAWFTGPGLGRRSGRRSRGHCPFQETNQADPAGEPARDSRRERRQARRHAGVLTQFVEMMTNLPLNTTTATAPAEPQKPKAAEQTESPPQAEPTVTAEKAAESEAKPTEPKKVNTDQSVPRTEDPVTTPRSTQPTTPVINLDNISQIVPPEYMSAGIEILNNFSEMFSKIIDTTEGGDSGIFAPSTTPSAENKKPEEQGQSSGQSGASSANQSAVPSAAPSANQSNVPSANQSATPSISGSIPDAQLETEPLNPKPSETTTETEQERRRSDSLDPEWQLIDNAYSANNSNLINLDTTNPTAAPQEPVRDFGQLGELLRQHMNEEARVEQASANTQTAQVDTVSTSTSTTSVTTNSVGTSPAAPDDKRTVPVYHTDESINKSIHAMMAMGFSNEGAWLTQLLESVQGNISAALDVMNVSQNRN
In experiment [2], B2 had a fold decrease of the interaction against EGFP-miPEP8 (MS intensity) of 2.8 fold.

Source of the values: article PMC13053990.
